Reference: publication PMC10514136, “Peptide-conjugated antimiRs improve myotonic dystrophy type 1 phenotypes by promoting endogenous MBNL1 expression” (Molecular Therapy. Nucleic Acids, 2023)
Several values for one entry are separate records, joined by “and”; a condition that tells them apart may be missing. Equal values may be shown once.

Columns and labels:
Type in all cases: in vivo, mouse
[1] = Bodyweight-normalized spleen weight and body weight
From the text: (§1) Mouse handling and experimental procedures followed the European law regarding laboratory animal care and experimentation (2003/65/C.E.) and were approved by Conselleria de Agricultura, […] (reference no. A1539961490857). We used homozygous transgenic HSA^LR (line 20 b) mice,[90] which were kindly provided by Dr Thornton (Rochester, NY) and were housed and bred in our animal facility. […] The mice were randomly allocated to the different treatments as follows: in each cage, each mouse was ear-marked as it was taken out, and each mouse was then assigned to a different treatment. Animals were injected biweekly intravenously with 150 μL of 1× PBS vehicle (controls; […] Mice were sacrificed 45 days after the first injection and the tissues of interest were frozen in liquid nitrogen for the molecular and histological assays. All the mice used in this study ranged from 5 to 5.5 months of age and all were males.

[2] = ELISA determination of antimiR conjugate concentrations in tissues; settings: HSALR mice, 9.2 mg/kg (mean) i.v. x3, day 45, hybridization ELISA, background subtracted, individual mice
Method: Custom ELISA-based measurements of antimiR conjugate concentrations in brain, kidney, liver, heart, gastrocnemius, and quadriceps from treated HSA^LR mice were performed as described in Burki et al.,[89] using the following phosphorothioate probes: for miR-218 (5′ → 3′) [DIG] T∗T∗G∗T∗G∗C∗T∗TGATCTA∗A∗C∗C∗A∗T∗G∗T [BIO]; for miR-23b (5′ → 3′) [BIO] A∗T∗C∗A∗C∗A∗T∗TGCCAGG∗G∗A∗T∗T∗A∗C∗C [DiG] double-labeled with digoxigenin (DIG) and biotin (BIO). In all cases, a control sample was used to subtract the background (HSA^LR treated with PBS for 9b2 and 9b2-KC ONs; HSA^LR treated with Scramble for 6aKC ONs).
Mouse handling and experimental procedures followed the European law regarding laboratory animal care and experimentation (2003/65/C.E.) and were approved by Conselleria de Agricultura, Generalitat Valenciana (reference no. A1539961490857). We used homozygous transgenic HSA^LR (line 20 b) mice,[90] which were kindly provided by Dr Thornton (Rochester, NY) and were housed and bred in our animal facility. Experimental groups were FVB as healthy control and HSA^LR treated with a scrambled ON (SC) and PBS as negative controls, and HSA^LR mice treated with all six experimental CPP-PMOs. The mice were randomly allocated to the different treatments as follows: in each cage, each mouse was ear-marked as it was taken out, and each mouse was then assigned to a different treatment. Animals were injected biweekly intravenously with 150 μL of 1× PBS vehicle (controls; HSA^LR n = 7 and FVB n = 6) or 150 μL of a solution 1.875 mg/mL of the test CPP-PMOs corresponding to an average dose of 9.2 mg/kg (HSA^LR mice: SC n = 5, 9b2-218 n = 5, 9b2-23b n = 5, […] n = 5, […] n = 5, 6aKC-218 n = 5, and 6aKC-23b n = 5; see Table S6 for precise dosing). Mice were sacrificed 45 days after the first injection and the tissues of interest were frozen in liquid nitrogen for the molecular and histological assays. All the mice used in this study ranged from 5 to 5.5 months of age and all were males.

[3] = tested on: HSALR mice; test: White blood cell differential count
From the text: as §1, with “males. At 45 days post treatment, animals were sacrificed, and blood was collected by cardiac puncture exsanguination with K3-EDTA (Sarstedt, Nümbrecht, Germany). The samples were analyzed by Laboratorios Montoro Botella (Valencia, Spain).” for “males.”

[4] = tested on: Clcn1 exon 7a; test: Alternative splicing of Clcn1 exon 7a in muscle by RT-PCR (PSI, splice recovery); settings: HSALR mice, individual mice; for Percentage spliced-in (PSI) Clcn1 Gast: 9.2 mg/kg (mean) i.v. x3, day 45, gastrocnemius; for Percentage spliced-in (PSI) Clcn1 Quads: 9.2 mg/kg (mean) i.v. x3, day 45, quadriceps
Method: Total RNA from murine gastrocnemius and quadriceps muscle was isolated using the miRNeasy Mini Kit (QIAGEN, Hilden, Germany) according to the manufacturer’s instructions. One microgram of RNA was digested with DNase I (Invitrogen, Carlsbad, CA) and reverse transcribed with SuperScript II (Invitrogen) using random hexanucleotides. For subsequent PCR reactions, 20 ng of cDNA was used with GoTaq polymerase (Promega). Specific primers were used to analyze the alternative splicing of Nfix, Atp2a1, and Clcn1 in mouse samples (both muscles). Gapdh levels established the endogenous reference levels using 0.2 ng of cDNA. PCR products were separated on a 2% agarose gel and quantified using ImageJ software (NIH, Bethesda, MD). PSR index was defined as value%SI minus X¯%DSI , divided by X¯%DSI minus X¯%HSI (SI, splicing inclusion of each sample; DSI, disease splicing inclusion; HSI, healthy splicing inclusion). Overall, PSR indicates the amount in both muscles analyzed. Primer sequences and exons analyzed are available in Cerro-Herreros et al.[20] In the case of off-targets, interleukins, and muscle regeneration marker Mstn-1, primers sequences are available in Table S5. We used 1 ng of mouse tissue cDNA as a template for multiplex qPCR using the QuantiFast Probe PCR Kit reagent. Commercial TaqMan probes (QIAGEN) were used for mouse (Mbnl1 and Mbnl2; FAM-labeled probes) and reference (GAPDH; MAX-labeled probe) genes. Results were normalized to Gapdh endogenous gene expression.
We used homozygous transgenic HSA^LR (line 20 b) mice,[90] which were kindly provided by Dr Thornton (Rochester, NY) and were housed and bred in our animal facility. Experimental groups were FVB as healthy control and HSA^LR treated with a scrambled ON (SC) and PBS as negative controls, and HSA^LR mice treated with all six experimental CPP-PMOs. The mice were randomly allocated to the different treatments as follows: in each cage, each mouse was ear-marked as it was taken out, and each mouse was then assigned to a different treatment. […] Mice were sacrificed 45 days after the first injection and the tissues of interest were frozen in liquid nitrogen for the molecular and histological assays. All the mice used in this study ranged from 5 to 5.5 months of age and all were males.

[5] = HSALR mice, 9.2 mg/kg (mean) i.v. x3, day 45, blood, differential count, mean ± sd

Substance	Weight ([1]; mouse, in vivo, iv, 9.2 mg/kg)	CPP-PMO concentration (pM), Brain ([2]; 9.2 mg/kg)	CPP-PMO concentration (pM), Gastrocnemius ([2]; 9.2 mg/kg)	CPP-PMO concentration (pM), Heart ([2]; 9.2 mg/kg)	CPP-PMO concentration (pM), Kidney ([2]; 9.2 mg/kg)	CPP-PMO concentration (pM), Liver ([2]; 9.2 mg/kg)	CPP-PMO concentration (pM), Quadriceps ([2]; 9.2 mg/kg)	Basophils ([3]; mouse, in vivo, iv, 9.2 mg/kg)	Eosinophils ([3]; mouse, in vivo, iv, 9.2 mg/kg)	Lymphocytes ([3]; mouse, in vivo, iv, 9.2 mg/kg)	Monocytes ([3]; mouse, in vivo, iv, 9.2 mg/kg)	Seg cells ([3]; mouse, in vivo, iv, 9.2 mg/kg)	Percentage spliced-in (PSI) Clcn1 Gast [4]	Percentage spliced-in (PSI) Clcn1 Quads [4]	further results
6aKC-23b (antisense GGUAAUCCCUGGCAAUGUGAU; all phosphorodiamidate morpholino (PMO), T or U not given here; Pip6aKC peptide conjugated)	39.84 ± 3,561 g	0.83 pM and 9.49 pM and 11.43 pM and 25.59 pM and 4.02 pM	93.86 pM and 1846.67 pM and 1209.72 pM and 472.26 pM and 199.58 pM	1789.14 pM and 954.01 pM and 1508.23 pM and 1701.45 pM	174345.23 pM and 110334.18 pM and 239168.85 pM and 16740.44 pM and 230939.23 pM	4615.98 pM and 9209.58 pM and 10333.80 pM and 76.40 pM and 8623.71 pM	72.30 pM and 93.71 pM and 165.91 pM and 28.58 pM and 1.72 pM	0 ± 0%	2,40 ± 1,341%	47,80 ± 12,133%	17,60 ± 7,537%	31,2 ± 13,142%	15.22% and 18.35% and 23.17% and 29.03% and 31.54%	24.44% and 30.63% and 35.11% and 37.69% and 28.33%	
6aKC-218 (antisense ACAUGGUUAGAUCAAGCACAA; all phosphorodiamidate morpholino (PMO), T or U not given here; Pip6aKC peptide conjugated)	39,02 ± 1,460 g		3105.34 pM and 4126.64 pM	220.63 pM and 8031.17 pM and 1672.26 pM	807303.00 pM and 163863.50 pM and 282189.80 pM and 288519.00 pM and 763252.10 pM	11820.61 pM and 1738.96 pM and 6547.20 pM and 6702.77 pM and 6452.86 pM	56.37 pM and 3449.73 pM and 180.55 pM	0 ± 0%	0,60 ± 0,894%	57,20 ± 12,357%	21,40 ± 7,127%	20,4 ± 6,189%	28.37% and 38.26% and 18.26% and 24.01% and 28.56%	33.68% and 24.84% and 25.74% and 41.25% and 27.67%	CPP-PMO concentration (pM), Brain [2]: 5.54 pM
9b2-23b (antisense GGUAAUCCCUGGCAAUGUGAU; all phosphorodiamidate morpholino (PMO), T or U not given here; Pip9b2 peptide conjugated)	32,78 ± 4,285 g	84.29 pM and 5.89 pM and 3.33 pM	1173.05 pM and 672.99 pM and 96.96 pM	458.72 pM and 70.02 pM and 540.73 pM	417329.90 pM and 445161.13 pM and 596014.00 pM	14705.39 pM and 13935.38 pM and 16995.86 pM	664.60 pM and 444.65 pM and 237.24 pM	0,2 ± 0,447%	6,20 ± 2,588%	65,40 ± 6,189%	6,20 ± 2,683%	21 ± 3,391%	26.85% and 32.69% and 33.28% and 26.86% and 11.37%	0.61%	Weight (g) W.0 ([1]; mouse, in vivo): 28.7 g; Weight (g) W.1 ([1]; mouse, in vivo): 29.2 g; Weight (g) W.2 ([1]; mouse, in vivo): 28.6 g; Weight (g) W.3 ([1]; mouse, in vivo): 29 g; Weight (g) W.4 ([1]; mouse, in vivo): 29.1 g; Weight (g) W.5 ([1]; mouse, in vivo): 29.4 g; Weight (g) W.6 ([1]; mouse, in vivo): 29.1 g
9b2-218 (antisense ACAUGGUUAGAUCAAGCACAA; all phosphorodiamidate morpholino (PMO), T or U not given here; Pip9b2 peptide conjugated)	30,76 ± 2,745 g	33.45 pM and 18.40 pM and 128.86 pM	504.97 pM and 1534.26 pM and 428.98 pM	1166.04 pM and 1995.51 pM and 1662.31 pM	348919.38 pM and 303314.43 pM and 726042.17 pM	16959.56 pM and 11986.59 pM and 23535.44 pM	482.70 pM and 1344.85 pM and 1437.67 pM	0,2 ± 0,447%	5,40 ± 2,073%	61,60 ± 4,159%	9,60 ± 3,209%	22,40 ± 3,647%	5.28% and 30.49% and 30.67% and 18.06% and 25.23%	4.09%	
TCTTACCTCAGTTACAATTTA-Pip9b2 [Scramble, reference compound]													12.37% and 14.67% and 42.81% and 26.86% and 36.37%	28.91% and 16.71% and 28.33% and 34.05% and 38.65%	Spleen weight ratio ([1]; HSALR mice, 9.2 mg/kg (mean) i.v. x3, day 45, bodyweight-normalized, mean ± sd, n = 5): 0,0029 ± 0,0005; Weight ([1]; HSALR mice, 9.2 mg/kg (mean) i.v. x3, body weight, mean ± sd, n = 5): 37,36 ± 2,928 g; Basophils [3, 5]: 0 ± 0%; Eosinophils [3, 5]: 2 ± 0,707%; Lymphocytes [3, 5]: 60 ± 14,543%; Monocytes [3, 5]: 11,60 ± 7,829%; Seg cells [3, 5]: 25,8 ± 8,349%; Stab cells [3, 5]: 0,60 ± 0,548%
